Measurements taken from patent US20040209310A1 (published 2004).

Biological target: T1, myc-tagged Mindin (pcDNA-His/myc-Mindin) (human, UniProt Q9BUD6 27-331)
T1 construct: mature; not shown: His/myc tag of vector pcDNA4-His/myc A
T1 sequence (looked up): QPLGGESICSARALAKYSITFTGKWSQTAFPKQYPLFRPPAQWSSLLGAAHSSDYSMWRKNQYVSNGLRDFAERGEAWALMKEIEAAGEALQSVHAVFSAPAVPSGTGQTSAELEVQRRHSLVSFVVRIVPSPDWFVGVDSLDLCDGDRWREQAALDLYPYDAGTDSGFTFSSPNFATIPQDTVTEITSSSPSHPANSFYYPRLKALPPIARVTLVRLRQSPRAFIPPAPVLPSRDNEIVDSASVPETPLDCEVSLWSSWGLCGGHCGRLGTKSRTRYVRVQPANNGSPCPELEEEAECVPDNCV
Experiment: pulldown of myc-tagged Mindin with immobilized GST-CAPPD
Procedure: Affinity chromatography on immobilized GST- or Ig-fusion proteins. These studies were performed essentially as described (Ichtchenko et al., 1995, Cell 81:435-443; Hata et al., Nature 366:347-351). Brain membrane extract was precleared by incubation (2 h at 4° C.) with glutathione agarose and incubated overnight at 4° C. with immobilized GST-CAPPD on glutathione agarose beads preequilibrated with buffer B. Beads were washed with buffer B and serially eluted with 2 ml of buffer B containing 0.3 M NaCl, 0.5 M NaCl, 1.0 M NaCl, or 1.0 M NaCl, 10 mM EGTA, and 5 mM EDTA (instead of 2 mM CaCl2). Eluted proteins were analyzed by SDS-PAGE and Coomassie blue staining. Bound proteins were identified by liquid chromatography/mass spectroscopy of tryptic fragments. For pulldown assays, the medium from COS cells transfected with pcDNA4-His/myc-F spondin or pcDNA-His/myc-Mindin (collected 48-72 h post transfection) was adjusted to (final concentrations) 10 mM HEPES-NaOH pH 7.4, 1 mM EGTA, 1% Triton X-100, proteinase inhibitors were added, and the supernatant was precleared with immobilized GST orIg-C. The treated medium was then incubated overnight at 4° C. with GST or GST-CAPPD immobilized on glutathione agarose or with various Ig-APP fusion proteins immobilized on protein-A Sepharose. […]

B1: GST-CAPPD fusion protein (pGEX-CAPPD, APP695 residues 286-557) (other, human, UniProt P05067-4 286-557, looked up)
chain: VVRVPTTAASTPDAVDKYLETPGDENEHAHFQKAKERLEAKHRERMSQVMREWEEAERQAKNLPKADKKAVIQHFQEKVESLEQEAANERQQLVETHMARVEAMLNDRRRLALENYITALQAVPPRPRHVFNMLKKYVRAEQKDRQHTLKHFEHVRMVDPKKAAQIRSQVMTHLRVIYERMNQSLSLLYNVPAVAEEIQDEVDELLQKEQNYSDDVLANMISEPRISYGNDALMPSLTETKTTVELLPVNGEFSLDDLQPWHSFGADSVPAN
notes: range 286-557; Expressed in bacteria and immobilized on glutathione agarose/Sepharose; also called CAPPD-GST fusion protein; central APP domain; not shown: glutathione S-transferase of vector pGEX-KG
B1: no binding.
